This note sets out measurements from US20240132587A1 (AstraZeneca / MedImmune, published 2024).

Test [1] has as its target T1, human CLDN18.2 (human, UniProt P56856-2 1-261).
T1 construct: whole, on cells; also called CLDN18.2 wild-type
T1 sequence (looked up): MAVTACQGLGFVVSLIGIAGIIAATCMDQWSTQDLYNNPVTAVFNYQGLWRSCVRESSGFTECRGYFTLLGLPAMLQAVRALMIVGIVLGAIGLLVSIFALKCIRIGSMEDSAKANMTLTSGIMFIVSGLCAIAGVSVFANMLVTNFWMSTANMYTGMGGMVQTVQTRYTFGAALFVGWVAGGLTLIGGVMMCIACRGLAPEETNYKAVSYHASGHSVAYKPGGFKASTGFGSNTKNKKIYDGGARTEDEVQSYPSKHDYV
In words: flow cytometry, IgG1 (0-533 nM) on HEK293 cells expressing human CLDN18.2. As to the method:
(§1) Purified CLDN18.2 antibodies were then characterized for affinity and cross-reactivity by flow cytometry. Briefly. HEK293 cells expressing human, cynomolgous monkey, rat or mouse CLDN18.2 were resuspended in FACS Buffer, stained with varying antibody concentrations (0-533 nM), washed with FACS Buffer, stained with Alexa Fluor® 647 AffiniPure F(ab′)₂ Fragment Goat Anti-Human IgG, washed with FACS buffer and stained with FACS buffer supplemented with DAPI. Antibody binding to cells was assessed on a FACSymphony (BD) with gates for live/dead cells. Histograms of median fluorescence intensity (MFI) were used to calculate the geometric mean for each antibody at a given concentration (FlowJo, LLC). Geometric means were plotted in Prism (GraphPad) and used to calculated binding EC₅₀. Representative results are shown for 5 antibodies (ZP1I16_D05 IgG1, 008LY1_D04 IgG1, 08LYG_D08 IgG1, 008M0G_G03 IgG1, ZP1I18_B08 IgG1) and 1 negative control antibody (R347 IgG1) although 31 other prospective antibodies were also characterized (Table 1).
A general note: A flow cytometer gives signals particle by particle.

For test [2], the target named is T1, human CLDN18.2. As to the kind of experiment: flow cytometry on HEK293 cells expressing human CLDN18.2 (FIG. 2A).
Text: FIGS. 2A-2D show CLDN18.2 binding affinity and species cross-reactivity of select leads as determined by flow cytometry measurement in HEK293 cells expressing human (FIG. 2A), cyno (FIG. 2B), rat (FIG. 2C) or mouse (FIG. 2D) CLDN18.2. All leads bind human and cyno CLDN18.2 (99% homology), most leads bind rat CLDN18.2 (90% homology) and only one internal lead binds murine CLDN18.2 (89% homology. R347 is used as a negative control.
as §1

In a further test the target is T2, mouse CLDN18.2 (mouse, UniProt P56857-3 1-264).
T2 construct: whole, on cells; also called murine CLDN18.2; mCLDN18.2
T2 sequence (looked up): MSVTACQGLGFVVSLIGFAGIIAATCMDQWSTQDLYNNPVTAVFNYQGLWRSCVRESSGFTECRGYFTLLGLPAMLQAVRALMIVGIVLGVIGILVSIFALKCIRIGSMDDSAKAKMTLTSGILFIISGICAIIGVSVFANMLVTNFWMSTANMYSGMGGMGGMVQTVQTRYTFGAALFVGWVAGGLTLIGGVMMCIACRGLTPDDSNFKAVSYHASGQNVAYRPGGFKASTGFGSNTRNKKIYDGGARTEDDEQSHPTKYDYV
As to the kind of experiment: flow cytometry, IgG1 (0-533 nM) on HEK293 cells expressing mouse CLDN18.2. The protocol:
as §1

B1: ZP1I16_D05 IgG1 (antibody, V domains shown)
VH: QVQLVQSGAEVKKPGSSVKVSCKASGGTFSSYAISWVRQAPGQGLEWMGGIIPIFGTANYAQKFQGRVTITADESTSTAYMELSSLRSEDTAVYYCARGFIRYGVFDYWGQGTLVTVSS
VL: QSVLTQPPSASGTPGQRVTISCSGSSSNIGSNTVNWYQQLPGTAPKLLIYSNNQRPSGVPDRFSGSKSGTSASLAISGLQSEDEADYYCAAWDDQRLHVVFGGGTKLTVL
notes: Tested as IgG1 with lambda light chain (pOE-IgG1 (λLC))
In the case of B1, the binding result with human CLDN18.2 [1] is on record as “binds”.

B2: 008LY1_D04 IgG1 (antibody, V domains shown)
VH: QVQLVQSGAEVKKPGSSVKVSCKASGGTFSSYAISWVRQAPGQGLEWMGGIIPIFGTANYAQKFQGRVTITADESTSTAYMELSSLRSEDTAVYYCARGYVQYGYFDYWGQGTLVTVSS
VL: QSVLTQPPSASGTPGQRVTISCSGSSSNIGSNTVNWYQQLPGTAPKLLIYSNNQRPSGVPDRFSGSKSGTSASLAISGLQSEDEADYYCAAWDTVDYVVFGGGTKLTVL
notes: as for B1
For B2, the binding result with human CLDN18.2 [2] was “binds”.

B3: 008LYG_D08 IgG1 (antibody, V domains shown)
VH: QVQLVQSGAEVKKPGSSVKVSCKASGGTFSSYAISWVRQAPGQGLEWMGGIIPIFGTANYAQKFQGRVTITADESTSTAYMELSSLRSEDTAVYYCARGYQGMGVFDPWGQGTLVTVSS
VL: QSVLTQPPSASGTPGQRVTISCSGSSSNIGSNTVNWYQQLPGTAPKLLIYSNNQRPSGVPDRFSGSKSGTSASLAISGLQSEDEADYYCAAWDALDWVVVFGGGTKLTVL
notes: as for B1
For B3, the binding result with mouse CLDN18.2 and in the test with human CLDN18.2 [2] was “binds” throughout.

B4: ZP1I18_B08 IgG1 (antibody, V domains shown)
VH: QVQLVQSGAEVKKPGSSVKVSCKASGGTFSSYAISWVRQAPGQGLEWMGGIIPIFGTANYAQKFQGRVTITADESTSTAYMELSSLRSEDTAVYYCARGFIRYGVFDYWGQGTLVTVSS
VL: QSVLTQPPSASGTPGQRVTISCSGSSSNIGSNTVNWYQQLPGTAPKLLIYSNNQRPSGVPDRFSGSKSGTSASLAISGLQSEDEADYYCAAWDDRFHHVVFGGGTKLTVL
notes: as for B1
For the molecule B4, in the test with human CLDN18.2 [2], the binding result was “binds”.

B5: 008M0G_G03 IgG1 (antibody, V domains shown)
VH: QVQLVQSGAEVKKPGSSVKVSCKASGGTFSSYAISWVRQAPGQGLEWMGGIIPIFGTANYAQKFQGRVTITADESTSTAYMELSSLRSEDTAVYYCARGYPRYGVFDYWGQGTLVTVSS
VL: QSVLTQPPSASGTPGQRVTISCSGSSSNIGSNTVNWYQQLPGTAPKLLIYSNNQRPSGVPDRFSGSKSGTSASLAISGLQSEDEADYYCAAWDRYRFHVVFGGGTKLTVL
notes: as for B1
Consider B5, for which the binding result with human CLDN18.2 [2] is given as “binds”.
